Results reported in article PMC3866087, “Heat Shock Transcription Factor σ^32 Co-opts the Signal Recognition Particle to Regulate Protein Homeostasis in E. coli” (PLoS Biology, 2013).

Molecular target: T1, purified SecA (E. coli, UniProt P10408 1-901)
T1 construct: SecA, ATP-fueled motor protein of the Sec translocon of E. coli, purified; source: purified essentially as described [82]
Assay: far-Western, overlay or dot blot; purified FtsY, Ffh, SecA or Ffh partially digested by Glu-C (V8) resolved on 10% SDS-PAGE, transferred to nitrocellulose, re-natured, incubated with purified WTσ^32, probed with polyclonal anti-σ^32
Details: both partners purified

T1 sequence (P10408 whole entry): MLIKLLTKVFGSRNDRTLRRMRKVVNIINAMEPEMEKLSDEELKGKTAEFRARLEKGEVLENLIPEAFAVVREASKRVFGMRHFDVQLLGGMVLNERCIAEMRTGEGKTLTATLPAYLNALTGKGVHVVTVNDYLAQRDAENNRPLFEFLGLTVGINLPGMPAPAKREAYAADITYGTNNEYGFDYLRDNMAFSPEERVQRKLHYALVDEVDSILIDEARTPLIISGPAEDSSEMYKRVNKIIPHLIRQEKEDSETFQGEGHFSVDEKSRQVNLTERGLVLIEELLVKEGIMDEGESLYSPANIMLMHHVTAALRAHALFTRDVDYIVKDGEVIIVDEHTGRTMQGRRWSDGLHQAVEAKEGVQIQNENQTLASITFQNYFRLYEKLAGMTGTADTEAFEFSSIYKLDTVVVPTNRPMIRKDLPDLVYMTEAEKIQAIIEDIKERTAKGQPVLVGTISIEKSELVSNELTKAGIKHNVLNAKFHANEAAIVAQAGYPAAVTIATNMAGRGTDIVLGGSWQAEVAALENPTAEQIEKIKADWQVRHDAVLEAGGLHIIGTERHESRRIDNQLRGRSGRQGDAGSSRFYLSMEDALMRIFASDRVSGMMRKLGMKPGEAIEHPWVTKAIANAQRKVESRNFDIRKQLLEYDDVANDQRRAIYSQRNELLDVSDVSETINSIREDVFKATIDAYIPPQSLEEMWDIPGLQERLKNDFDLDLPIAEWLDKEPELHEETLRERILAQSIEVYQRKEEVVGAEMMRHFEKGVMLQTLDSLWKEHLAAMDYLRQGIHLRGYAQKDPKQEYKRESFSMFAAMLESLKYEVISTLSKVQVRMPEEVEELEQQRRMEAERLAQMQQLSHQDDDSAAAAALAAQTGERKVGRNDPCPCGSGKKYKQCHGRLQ

B1: purified WTσ^32 (natural protein, E. coli, UniProt P0AGB3 1-284, looked up)
chain: MTDKMQSLALAPVGNLDSYIRAANAWPMLSADEERALAEKLHYHGDLEAAKTLILSHLRFVVHIARNYAGYGLPQADLIQEGNIGLMKAVRRFNPEVGVRLVSFAVHWIKAEIHEYVLRNWRIVKVATTKAQRKLFFNLRKTKQRLGWFNQDEVEMVARELGVTSKDVREMESRMAAQDMTFDLSSDDDSDSQPMAPVLYLQDKSSNFADGIEDDNWEEQAANRLTDAMQGLDERSQDIIRARWLDEDNKSTLQELADRYGVSAERVRQLEKNAMKKLRAAIEA
notes: RNA polymerase sigma factor σ^32 (RpoH) of E. coli, wild type, purified; called full-length in the discussion; The methods list 6×H-tagged, Strep-6×H-tagged and untagged σ^32; also called full-length σ^32; source: purified essentially as described [80]; chaperones removed with a wash of ATP, MgCl2 and two peptides
B1: binds.
